Results reported in patent US20250179144A1 (UNIVERSITY OF MELBOURNE, published 2025).

T1: BTN2A1 ectodomain homodimer, disulfide-linked (C-terminal Cys247, acidic or basic leucine zipper) (human, UniProt Q7KYR7 29-248; Q7KYR7 29-248)
T1 construct: Biotinylated and immobilised on a streptavidin chip in SPR; also called immobilized BTN2A1 homodimer; immobilised BTN2A1 ectodomain homodimer; not shown: linker and acidic leucine zipper; linker and basic leucine zipper
T1 sequence 1: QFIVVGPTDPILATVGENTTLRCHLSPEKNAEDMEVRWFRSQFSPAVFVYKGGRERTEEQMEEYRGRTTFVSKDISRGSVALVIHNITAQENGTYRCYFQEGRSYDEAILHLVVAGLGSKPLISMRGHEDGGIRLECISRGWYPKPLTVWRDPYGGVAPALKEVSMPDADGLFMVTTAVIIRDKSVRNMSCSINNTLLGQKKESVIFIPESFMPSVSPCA
T1 sequence 2: T1 sequence 1

B1: soluble BTN2A1 ectodomain lacking Cys247 (monomeric) (ligand)
chain: QFIVVGPTDPILATVGENTTLRCHLSPEKNAEDMEVRWFRSQFSPAVFVYKGGRERTEEQMEEYRGRTTFVSKDISRGSVALVIHNITAQENGTYRCYFQEGRSYDEAILHLVVAGLGSKPLISMRGHEDGGIRLECISRGWYPKPLTVWRDPYGGVAPALKEVSMPDADGLFMVTTAVIIRDKSVRNMSCSINNTLLGQKKESVIFIPESFMPSVSP
notes: C-terminal biotin ligase (AviTag) and His6 tags; Used as SPR analyte and in crystals; also called monomeric BTN2A1 ectodomain; full-length BTN2A1 ectodomain
B2: monomeric BTN3A1 IgV domain (ligand)
chain: not shown
B3: soluble BTN3A1 ectodomain (IgV-IgC), homodimer (ligand)
chain: not shown
notes: C-terminal biotin ligase (AviTag) and His6 tags; Analyte or immobilised ligand in SPR; streptavidin-PE tetramer in flow cytometry; also called BTN3A1 ectodomain homodimer; full-length BTN3A1 ectodomain

Key:
[1] = molecular target: T1, BTN2A1 ectodomain homodimer, …; test: SPR; BTN2A1 ectodomain homodimer immobilised, soluble BTN2A1 ectodomain injected
Description: (§1) SPR experiments were conducted at 25° C. on a Biacore T200 instrument (GE Healthcare) using 10 mM HEPES-HCl (pH 7.4), 150 mM NaCl, 3 mM EDTA, and 0.05% Tween 20 buffer. Biotinylated BTN ectodomains were immobilized to 1,500-2,000 resonance units (RU) on a Biacore sensor chip SA pre-immobilized with streptavidin. Soluble BTN molecules or G115 γδTCR were two-fold serially diluted and simultaneously injected over test and control surfaces at a rate of 30 μl/min. After subtraction of data from the control flow cell (BTN1A1) and blank injections, interactions were analyzed using Biacore T200 evaluation software (GE Healthcare), Scrubber (Biologic) and Prism version 9 (GraphPad), and equilibrium dissociation constants were derived at equilibrium.

[2] = molecular target: B3; test: SPR, equilibrium; BTN3A1 homodimer immobilised, soluble monomeric BTN2A1 ectodomain injected
Description: as §1

[3] = molecular target: B3; test: SPR, soluble monomeric BTN3A1 IgV domain over immobilised BTN3A1 homodimer
Description: SPR experiments were conducted at 25° C. on a Biacore T200 instrument (GE Healthcare) using 10 mM HEPES-HCl (pH 7.4), 150 mM NaCl, 3 mM EDTA, and 0.05% Tween 20 buffer. Biotinylated BTN ectodomains were immobilized to 1,500-2,000 resonance units (RU) on a Biacore sensor chip SA pre-immobilized with streptavidin. Soluble BTN molecules or G115 γδTCR were two-fold serially diluted and simultaneously injected over test and control surfaces at a rate of 30 μl/min.

[4] = molecular target: T1, BTN2A1 ectodomain homodimer, …; test: SPR, equilibrium; BTN2A1 homodimer immobilised, soluble BTN3A1 IgV domain injected
Description: as §1

[5] = molecular target: T1, BTN2A1 ectodomain homodimer, …; test: SPR, equilibrium; disulfide-linked BTN2A1 homodimer immobilised, soluble BTN3A1 ectodomain injected
Description: as §1

## B1
[1]
  binding result: no binding
[2]
  Kd: ~1800 µM

## B2
[3]
  binding result: no binding (tested: 1,590 µM)
[4]
  Kd: 1100 µM

## B3
[5]
  Kd: 500 µM
